Data: patent US8501487B2, “Composition for use as a peptide retention standard and a method of predicting peptide hydrophobicity in liquid chromatography” (University of Manitoba, priority 2008, dated 2013)
Like-named read-outs stand apart in the source and are kept apart here.

Columns and labels:
[1] = Isocratic RP HPLC: log k vs φ plots, UHI (acetonitrile concentration at k=10) and S slope; type: physicochemical; settings: for S value (slope in LSS equation): isocratic, TFA, pH 2; for UHI 100 Å C18 − TFA / UHI 100 Å C18 − FA / UHI 300 Å C18 − TFA / UHI 100 Å C18 − pH 10: acetonitrile concentration (ACN %) at k=10, isocratic, in %; for UHI 100 Å C18 − TFA: 0.1% TFA; for UHI 100 Å C18 − TFA / UHI 100 Å C18 − FA / UHI 300 Å C18 − TFA: ~25° C.; for UHI 100 Å C18 − FA: 0.1% formic acid; for UHI 300 Å C18 − TFA: Vydac 218 TP C18, 0.1% TFA; for UHI 100 Å C18 − pH 10: XTerra C18, 20 mM ammonium formate pH 10, ~25° C.
Source text: Accordingly, in a further embodiment of the present disclosure there is included, a method of predicting hydrophobicity of a peptide: • (a) measuring retention time for each peptide of a standard peptide mixture at three or more different concentrations of acetonitrile under isocratic conditions; • (b) calculating a retention coefficient k for each peptide in the mixture and at each concentration of acetonitrile using equation (2) k=(tR−tO)/TOc (2) • wherein • tR is the retention time, • tO is system dead time, and • TOc is column dead time; • (c) for each peptide in the mixture, plotting log k vs φ, wherein φ is the acetonitrile volume fraction; • (d) for each peptide in the mixture, determining the value of φ when log k=1 and converting this to acetonitrile concentration to provide a universal hydrophobicity index (UHI); • (e) plotting retention times of each peptide vs its UHI; • (f) determining the retention time of an unknown peptide under the isocratic liquid chromatographic conditions; and • (g) determining from the plot in (e) the value of UHI that corresponds to the retention time of the unknown peptide, • wherein the UHI correlates to the hydrophobicity of the unknown peptide.
Two chromatographic setups: micro-flow 3 μl/min and “semi-micro” at 150 μl/min were employed utilizing a micro-Agilent 1100 Series system (Agilent Technologies, Wilmington, Del.) with two column sizes: 300 μm×150 mm (micro) and 1 mm×100 mm (semi-micro). The three stationary phases studied included: Vydac 218 TP C18, 300 Å pore size, 5 μm (Grace Vydac, Hesperia, Calif.); Luna C18(2) 100 Å, 5 μm (Phenomenex, Torrance, Calif.) and XTerra C18, 120 Å, 5 μm (Waters, Milford, Mass.). Three different ion-pairing systems with linear water-acetonitrile gradients were employed: 0.1% trifluoroacetic acid (TFA) in both eluents A and B (Vydac and Luna), 0.1% formic acid (FA, Luna) and 20 mM ammonium formate pH 10 (XTerra). This provided us with four different mobile/stationary phase combinations corresponding to four versions of SSRCalc model: 100 and 300 Å for TFA, 100 Å with FA and 100 Å at pH 10. Gradient separations of the 6-peptide mixture in “semi-micro” flow mode were performed in all four systems using 0.5, 1, 2 and 4% acetonitrile per minute gradient slopes.
Stock solutions of the 6 custom peptides (˜1 mg/ml) were prepared by dissolving in 1 ml of 0.1% TFA in water (20% acetonitrile for peptides #5 and 6). Ten microliters sample injection was applied for “semi-micro” conditions in both isocratic and gradient modes. Individual peptides, their mixture and the S1-S5 retention standard were diluted to provide ˜0.5-1 μg injection of each component. 214 nm UV detection was used. All chromatographic experiments were conducted at room temperature, ˜25° C. Dead volume of the column and connecting tubings was measured using injection of non-retained compound (water) and measuring elution time of negative peak. Retention coefficients for isocratic elution were calculated using the formula: k=(tR−t0)/t0c; where tR is retention time, t0 and t0c—system (column and tubings) and column dead time.
Since accurate measurement of ACN % hydrophobicity using gradient elution is problematic it is proposed to use isocratic conditions for this purpose. […] This confirms once again that peptides elute from reversed-phase sorbents within a very narrow range of acetonitrile concentration. It is clear as well that the slope of these dependencies decrease systematically as peptide hydrophobicity increase. This is the reason for narrowing ACN percentage scale for shallow gradients in FIG. 2.
It is proposed to use acetonitrile concentration at which the capacity factor of any given peptide is equal to 10 (at room temperature ˜25° C.) as a measure of peptide hydrophobicity. This value is referred to herein as peptide Universal Hydrophobicity Index (UHI), since it depends only on type of the sorbent and ion-pairing modifier. […]

[2] = rhGH tryptic digest, literature data; cited from earlier work
[3] = Gradient RP HPLC: acetonitrile concentration at elution and ACN % range covered; type: physicochemical; settings: gradient conditions (FIG. 2c), Luna C18(2), 0.1% TFA, gradient delay time 4.3 min taken into account
Source text: A one percent per minute acetonitrile gradient starting from 0% was used for all separations. The retention time difference between first and last peaks on chromatograms gives direct indication of ACN % scale covered. […] Such wide coverage is very important, especially for nano- and micro-flow proteomics LC applications. While normal-flow gradient system technology is well established, in nano scale LC gradient reproducibility is harder to achieve. The correct retention time distribution of the standard peptides of the present disclosure confirms the proper development of the gradient, especially at the beginning of the chromatogram. Also note the uniform distribution of the six peaks of the peptide composition of the present disclosure throughout the chromatogram; such uniformity is rarely observed in standard peptide mixtures derived from protein digests. […]
Stock solutions of the 6 custom peptides (˜1 mg/ml) were prepared by dissolving in 1 ml of 0.1% TFA in water (20% acetonitrile for peptides #5 and 6). […] Dead volume of the column and connecting tubings was measured using injection of non-retained compound (water) and measuring elution time of negative peak. Retention coefficients for isocratic elution were calculated using the formula: k=(tR−t0)/t0c; where tR is retention time, t0 and t0c—system (column and tubings) and column dead time. […]

Substance | S value (slope in LSS equation) ([1]; Luna C18(2)) | S value (slope in LSS equation) [2] | UHI 100 Å C18 − TFA ([1]; Luna C18(2)) | UHI 100 Å C18 − FA ([1]; Luna C18(2)) | UHI 300 Å C18 − TFA [1] | UHI 100 Å C18 − pH 10 [1] | concentration of acetonitrile required for elution [3] [%] | acetonitrile concentration at k=10 ([1]; isocratic conditions, Luna C18(2), TFA (FIG. 3)) [%]
ALILTLVS [peptide purchased from Bachem, singly charged at pH 2, reference compound] | 13.47 |  |  |  |  |  |  | 
ISLLLIQSWLEPVQFLR [Peptide T9, tryptic digest product of recombinant human growth hormone] |  | 18.5 |  |  |  |  |  | 
LGGGGGGDFR [custom synthesized standard peptide] |  |  | 10.74 | 4.58 | 8.40 | 6.80 |  | 
LGGGGGGDGSR [custom synthesized standard peptide] |  |  | 3.97 | <0 | 1.89 | 1.14 |  | 
LLGGGGDFR [custom synthesized standard peptide] |  |  | 15.53 | 8.55 | 13.35 | 13.65 |  | 
LLLGGDFR [custom synthesized standard peptide] |  |  | 20.72 | 13.08 | 18.90 | 18.29 |  | 
LLLLDFR [custom synthesized standard peptide] | 14.69 |  | 26.07 | 18.26 | 24.78 | 24.18 | 29.6 | 26.1
LLLLLDFR [custom synthesized standard peptide] |  |  | 29.58 | 21.59 | 28.60 | 28.94 |  | 
QTYSK [Peptide T14, tryptic digest product of recombinant human growth hormone] |  | 24.3 |  |  |  |  |  | 
